Results as given in the supplement of paper PMC7877785.
± gives the uncertainty stated by the source.

Assay: self-splicing fitness, log relative to wild type (ln ratio); higher = more splicing; Tetrahymena group I intron in knt gene, E. coli kanamycin selection, DiMSum; sequences stand for … in CUCUCU…GGAGGGAAAAGUUAUCAGGCAUGCACCUGGUAGCUAGUCUUUAAACCAAUAGAUUGCAUCGGUUUAAAAGGCAAGACCGUCAAAUUGCGGGAAAGGGGUCAACAGCCGUUCAGUACCAAGUCUCAGGGGAAACUUUGAGAUGGCCUUGCAAAGGGUAUGGUAAUAAGCUGACGGACAUGGUCCUAACCACGCAGCCAAGUCCUAAGUCAACAGAUCUUCUGUUGAUAUGGAUGCAGUUCACAGACUAAAUGUCGGUCGGGGAAGAUGUAUUCUUCUCAUAAGAUAUAGUCGGACCUCUCCUUAAUGGGAGCUAGCGGAUGAAGUGAUGCAACACUGGAGCCGCUGGGAACUAAUUUGUAUGCGAAAGUAUAUUGAUUAGUUUUGGAGUACUCGUGGUCG
In short: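 Library with all eight P1ex-region intron nucleotides randomised, intron inside the knt kanamycin-resistance gene on pET-22b(+), in E. coli BL21(DE3). Cells grew overnight at 37°C or 30°C on LB agar with or without 25 μg/mL kanamycin (plus 100 μg/mL carbenicillin, 50 μM IPTG, 0.2% rhamnose), in six replicate transformations. Pooled colonies were amplicon-sequenced on Illumina HiSeq 2500. DiMSum fitness is the error-weighted combination of wild-type-normalised replicate fold changes, kanamycin versus none.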

Row | Sequence | self-splicing fitness (ln) (30 °C) | self-splicing fitness (ln) (37 °C)
1 | CGUAAGCAAUAUUACGGUAU | -3.71 ± 0.37 | -2.56 ± 0.26
2 | CGUAAGCAAUAUUACGGUUC | – | -2.59 ± 0.26
3 | CGUAAGCAAUAUUACGUAAU | -3.23 ± 0.16 | -2.64 ± 0.18
4 | CGUAAGCAAUAUUACGUCAA | -2.62 ± 0.26 | -1.56 ± 0.24
5 | CGUAAGCAAUAUUACGUCAC | – | -2.59 ± 0.44
6 | CGUAAGCAAUAUUACGUUAA | -3.03 ± 0.23 | -2.47 ± 0.29
7 | CGUAAGCAAUAUUACGUUUC | -3.97 ± 0.24 | -1.92 ± 0.2
8 | CGUAAGCAAUAUUACGUUUG | -1.2 ± 0.08 | -0.438 ± 0.1
9 | CGUAAGCAAUAUUACGUUUU | -4.1 ± 0.18 | -3.05 ± 0.19
10 | CGUCAGCAAUAUUACGAAGC | – | -2.3 ± 0.5
11 | CGUCAGCAAUAUUACGACCG | -0.855 ± 0.098 | -0.475 ± 0.12
12 | CGUCAGCAAUAUUACGACCU | -0.193 ± 0.13 | 0.326 ± 0.15
13 | CGUCAGCAAUAUUACGACGC | – | -3.2 ± 0.32
14 | CGUCAGCAAUAUUACGAUCA | -0.722 ± 0.096 | 0.228 ± 0.12
15 | CGUCAGCAAUAUUACGCACU | -0.336 ± 0.071 | 0.339 ± 0.079
16 | CGUCAGCAAUAUUACGCCAU | -3.87 ± 0.29 | -2.81 ± 0.3
17 | CGUCAGCAAUAUUACGCUUU | -3.76 ± 0.27 | -1.66 ± 0.17
18 | CGUCAGCAAUAUUACGGAAU | -4.05 ± 0.37 | -2.83 ± 0.21
19 | CGUCAGCAAUAUUACGGAUG | -3.63 ± 0.2 | -1.74 ± 0.14
20 | CGUCAGCAAUAUUACGGCAU | -0.76 ± 0.074 | -0.608 ± 0.081
21 | CGUCAGCAAUAUUACGGGAA | -3.68 ± 0.43 | -1.18 ± 0.18
22 | CGUCAGCAAUAUUACGGGCA | 0.0754 ± 0.085 | 0.572 ± 0.096
23 | CGUCAGCAAUAUUACGUACA | -0.533 ± 0.072 | 0.154 ± 0.087
24 | CGUCAGCAAUAUUACGUAGU | -2.26 ± 0.12 | -1.24 ± 0.13
25 | CGUCAGCAAUAUUACGUAUC | -3.54 ± 0.19 | -2.06 ± 0.19
26 | CGUCAGCAAUAUUACGUCUA | -0.831 ± 0.13 | -0.968 ± 0.17

Row | Sequence | self-splicing fitness (ln) (30 °C) | self-splicing fitness (ln) (37 °C)
27 | CGUCAGCAAUAUUACGUGUU | -3.17 ± 0.11 | -0.86 ± 0.099
28 | CGUGAGCAAUAUUACGACAC | -2.5 ± 0.27 | –
29 | CGUGAGCAAUAUUACGACCU | -1.34 ± 0.28 | -1.17 ± 0.3
30 | CGUGAGCAAUAUUACGCACC | -1.07 ± 0.23 | –
31 | CGUGAGCAAUAUUACGCCGA | – | -1.96 ± 0.41
32 | CGUGAGCAAUAUUACGCCGG | -2.32 ± 0.24 | -2.58 ± 0.39
33 | CGUGAGCAAUAUUACGCCGU | – | -1.1 ± 0.25
34 | CGUGAGCAAUAUUACGGAAC | – | -1.28 ± 0.44
35 | CGUGAGCAAUAUUACGGCUA | -1.68 ± 0.14 | -1.12 ± 0.14
36 | CGUGAGCAAUAUUACGGGAG | -3.67 ± 0.24 | -2.52 ± 0.19
37 | CGUGAGCAAUAUUACGGGCG | -2.93 ± 0.46 | -1.63 ± 0.43
38 | CGUGAGCAAUAUUACGGGCU | -1.5 ± 0.18 | -2.67 ± 0.39
39 | CGUGAGCAAUAUUACGGGGA | -3.34 ± 0.4 | -3.62 ± 0.42
40 | CGUGAGCAAUAUUACGGGUU | -3.99 ± 0.46 | -2.65 ± 0.29
41 | CGUGAGCAAUAUUACGUCCC | – | -1.09 ± 0.42
42 | CGUGAGCAAUAUUACGUCCU | – | -1.64 ± 0.32
43 | CGUUAGCAAUAUUACGAACU | -0.929 ± 0.075 | 0.785 ± 0.11
44 | CGUUAGCAAUAUUACGACAC | -2.43 ± 0.21 | -0.891 ± 0.19
45 | CGUUAGCAAUAUUACGACCA | -0.453 ± 0.17 | -0.925 ± 0.2
46 | CGUUAGCAAUAUUACGACGA | -1.36 ± 0.19 | -1.3 ± 0.19
47 | CGUUAGCAAUAUUACGAUGG | -0.465 ± 0.094 | -0.125 ± 0.13
48 | CGUUAGCAAUAUUACGCCAU | – | -1.61 ± 0.2
49 | CGUUAGCAAUAUUACGCCCG | -0.798 ± 0.29 | –
50 | CGUUAGCAAUAUUACGCGAG | -2.42 ± 0.29 | –
51 | CGUUAGCAAUAUUACGCGGA | -2.82 ± 0.47 | -1.31 ± 0.17
52 | CGUUAGCAAUAUUACGCUUC | – | -2.27 ± 0.36

Row | Sequence | self-splicing fitness (ln) (30 °C) | self-splicing fitness (ln) (37 °C)
53 | CGUUAGCAAUAUUACGGACA | -0.317 ± 0.08 | 0.172 ± 0.1
54 | CGUUAGCAAUAUUACGGACG | -4.39 ± 0.36 | -2.23 ± 0.25
55 | CGUUAGCAAUAUUACGGCAG | -0.122 ± 0.1 | 0.3 ± 0.12
56 | CGUUAGCAAUAUUACGGUGU | -3.37 ± 0.19 | -2.29 ± 0.17
57 | CGUUAGCAAUAUUACGUAAA | -2.88 ± 0.22 | -1.88 ± 0.26
58 | CGUUAGCAAUAUUACGUACG | -2.89 ± 0.36 | -2.09 ± 0.5
59 | CGUUAGCAAUAUUACGUCCA | -2.04 ± 0.41 | -1.13 ± 0.48
60 | CGUUAGCAAUAUUACGUCCU | -1.24 ± 0.1 | -0.9 ± 0.15
61 | CGUUAGCAAUAUUACGUGGA | -2.98 ± 0.18 | -1.68 ± 0.13
62 | CGUUAGCAAUAUUACGUUAC | -2.82 ± 0.32 | -2.83 ± 0.43
63 | CGUUAGCAAUAUUACGUUGA | -3.1 ± 0.22 | -2.25 ± 0.17
64 | CUAAAGCAAUAUUACGAACG | 0.195 ± 0.089 | 0.868 ± 0.12
65 | CUAAAGCAAUAUUACGACGA | -2.38 ± 0.13 | -0.919 ± 0.15
66 | CUAAAGCAAUAUUACGACUG | 0.0292 ± 0.098 | 0.417 ± 0.12
67 | CUAAAGCAAUAUUACGAGGC | -3.6 ± 0.16 | -1.92 ± 0.16
68 | CUAAAGCAAUAUUACGAUCA | -2.12 ± 0.18 | -0.711 ± 0.22
69 | CUAAAGCAAUAUUACGCGAC | -0.482 ± 0.14 | -0.124 ± 0.17
70 | CUAAAGCAAUAUUACGCGCA | -2.92 ± 0.23 | -1.64 ± 0.33
71 | CUAAAGCAAUAUUACGCUGA | -3.03 ± 0.18 | -2.95 ± 0.29
72 | CUAAAGCAAUAUUACGCUUA | -3.75 ± 0.37 | -2.75 ± 0.39
73 | CUAAAGCAAUAUUACGCUUU | -4.2 ± 0.33 | -2.35 ± 0.29
74 | CUAAAGCAAUAUUACGGAGG | -1.82 ± 0.1 | 0.0636 ± 0.12
75 | CUAAAGCAAUAUUACGGCAC | -2.96 ± 0.22 | –
76 | CUAAAGCAAUAUUACGGCUC | -3.26 ± 0.4 | –
77 | CUAAAGCAAUAUUACGGGCG | -0.0163 ± 0.069 | -0.208 ± 0.081
78 | CUAAAGCAAUAUUACGGGUU | -4.13 ± 0.28 | -3.49 ± 0.33

Row | Sequence | self-splicing fitness (ln) (30 °C) | self-splicing fitness (ln) (37 °C)
79 | CUAAAGCAAUAUUACGGUAU | -3.53 ± 0.16 | -2.58 ± 0.17
80 | CUAAAGCAAUAUUACGGUCA | -2.46 ± 0.18 | -1.22 ± 0.2
81 | CUAAAGCAAUAUUACGGUUU | -3.29 ± 0.2 | -2.81 ± 0.28
82 | CUAAAGCAAUAUUACGUACA | -2.52 ± 0.14 | -0.872 ± 0.18
83 | CUAAAGCAAUAUUACGUGCG | -0.674 ± 0.093 | 0.0651 ± 0.12
84 | CUAAAGCAAUAUUACGUUCG | 0.342 ± 0.064 | 0.478 ± 0.082
85 | CUAAAGCAAUAUUACGUUGC | -3.49 ± 0.18 | -2.45 ± 0.22
86 | CUACAGCAAUAUUACGAAAU | -3.72 ± 0.16 | -2.82 ± 0.17
87 | CUACAGCAAUAUUACGAGUC | -3.63 ± 0.24 | -3.18 ± 0.38
88 | CUACAGCAAUAUUACGAUAA | -3.02 ± 0.15 | -1.49 ± 0.12
89 | CUACAGCAAUAUUACGAUAG | -2.04 ± 0.12 | -1.16 ± 0.12
90 | CUACAGCAAUAUUACGAUGG | -1.44 ± 0.053 | -0.971 ± 0.077
91 | CUACAGCAAUAUUACGCGCG | -1.36 ± 0.082 | -0.796 ± 0.11
92 | CUACAGCAAUAUUACGGCCA | -3 ± 0.28 | –
93 | CUACAGCAAUAUUACGGGGA | -3.52 ± 0.26 | -1.79 ± 0.16
94 | CUACAGCAAUAUUACGGGGU | -3.62 ± 0.12 | -2.34 ± 0.14
95 | CUACAGCAAUAUUACGGGUC | -4.01 ± 0.23 | -2.44 ± 0.21
96 | CUACAGCAAUAUUACGGUAC | -2.81 ± 0.13 | -1.13 ± 0.18
97 | CUACAGCAAUAUUACGUACC | -3.08 ± 0.41 | -1.72 ± 0.43
98 | CUACAGCAAUAUUACGUCGA | -3.59 ± 0.22 | -3.7 ± 0.3
99 | CUACAGCAAUAUUACGUCGG | -1.98 ± 0.066 | -0.736 ± 0.079
100 | CUACAGCAAUAUUACGUGAA | -4.26 ± 0.19 | -2.08 ± 0.17
101 | CUACAGCAAUAUUACGUGGU | -3.31 ± 0.22 | -3.03 ± 0.28
